In this test the target is human IL-17A (human) (UniProt Q16552).

Take “AIN457 (anti-IL-17A antibody by Novartis)”: the IC50, picomole, as defined by the cell IL6 test was determined as 1100 picomole.

These data come from patent US11447574B2.
